{"source": "paper PMC6858323", "about": "(2019)", "parents": {"B1": {"name": "PilT^Pa two-hybrid fusion from pKT25::PilT^Pa (wild type) [Pseudomonas aeruginosa] / PilC^Pa two-hybrid fusion from pUT18C::PilC^Pa [Pseudomonas aeruginosa] (parent complex)", "chain 1": "MDITELLAFSAKQGASDLHLSAGLPPMIRVDGDVRRINLPPLEHKQVHALIYDIMNDKQRKDFEEFLETDFSFEVPGVARFRVNAFNQNRGAGAVFRTIPSKVLTMEELGMGEVFKRVSDVPRGLVLVTGPTGSGKSTTLAAMLDYLNNTKYHHILTIEDPIEFVHESKKCLVNQREVHRDTLGFSEALRSALREDPDIILVGEMRDLETIRLALTAAETGHLVFGTLHTTSAAKTIDRVVDVFPAEEKAMVRSMLSESLQSVISQTLIKKIGGGRVAAHEIMIGTPAIRNLIREDKVAQMYSAIQTGGSLGMQTLDMCLKGLVAKGLISRENAREKAKIPENF", "chain 2": "MLVKAHLRKQGINPLKVRKKGISLLGAGKKVKPMDIALFTRQMATMMGAGVPLLQSFDIIGEGFDNPNMRKLVDEIKQEVSSGNSLANSLRKKPQYFDELYCNLVDAGEQSGALENLLDRVATYKEKTESLKAKIRKAMTYPIAVIIVALIVSAILLIKVVPQFQSVFQGFGAELPAFTQMVVNLSEFLQEWWLAVIVGVGAIGFTFKELHKRSKKFRDTLDRTILKLPIFGGIVYKSAVARYARTLSTTFAAGVPLVDALDSVSGATGNIVFKNAVSKIKQDVSTGMQLNFSMRTTSVFPNMAIQMTAIGEESGSLDEMLSKVASYYEEEVDNAVDNLTTLMEPMIMAVLGVLVGGLIVAMYLPIFQLGNVVG"}}}
{"variants_of": "B1", "test": "bacterial two-hybrid (BACTH), β-galactosidase activity; E. coli BTH101; n = 3; parent: 650; read off a plot", "units": {"response": "Miller units"}}
{"variant": "chain 1 R123D", "response": "~140"}
{"variant": "chain 1 K58A", "response": "~700"}
{"variant": "chain 1 T216R", "response": "~700"}
{"variant": "chain 1 D31K", "response": "~220"}
{"variant": "chain 1 E258A", "response": "~850"}
{"variant": "chain 1 D242K", "response": "~670"}
{"variant": "chain 1 K58R", "response": "~750"}
{"variant": "chain 1 K58Q", "response": "~630"}
{"variant": "chain 1 E219K", "response": "~230"}
{"variant": "chain 1 R239A", "response": "~490"}
{"variant": "chain 1 R294E", "response": "~200"}
